Results on 30 sequences are retold here after the nanobody polyreactivity screen of Harvey et al. (2022).

The nature of the data set: yeast display, Sf9 membrane polyspecificity reagent, FACS + sequencing; frameworks hold sequencing errors. In short, it runs like this: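 A synthetic nanobody library was expressed on Saccharomyces cerevisiae BJ5465 by galactose induction for 36–48 hours. The library was stained for 1 hour at 4 °C with 10% biotinylated, detergent-solubilized Sf9 membrane reagent and enriched with streptavidin microbeads before FACS. Low and high (top ~1%) gates were set on anti-HA fluorescence for expression and streptavidin fluorescence for reagent binding, and each polyreactivity label reflects the gate of origin.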
As to “QVQLVESGGGLVQAGGSLRLSCAASGIIFGYYSMGWYRQAPGKERDLVAAITWSGGSTYYADSVKGRFTISRDYAKNTVYLQMNSLKPEDTAVYYCNALGWYGDYDYWGQGTQVTVSS”, the “polyreactivity (PSR sort gate)” value is “low polyreactivity”.

Turning to “QVQLVESGGGLVQAGGSLRLSCAASGIIFHFNDMGWTTQAPGKERELVAAISRRGSTYYADSVTGRFTISRDNAKNSVYLQMNSLKPEDTAVYYCAKYRGRVKTYNGGYDYWGQGTQVSVSS”, the “polyreactivity (PSR sort gate)” value is “low polyreactivity”.

Take “QVQLVESGGGLVQAGGSLRLSCAASGIIFHFNDMGWYRLAPGKERELVAAITSGGSTNYADSVKGRFTISRDNAKKTVYLQMNSLKPEDTADYYCAARRGLRLFAYRHGYWGQGTQVTVSS”: the “polyreactivity (PSR sort gate)” value is reported as “low polyreactivity”.

In the case of “QVQLVESGGGLVQAGGSLRLSCAASGIIFHFNDMGWYRQAPGKERELVAAIDSTGSTNYADSVKGRFTISRDNAKNTVNLQMNSLKPEDTAVYYCAADWTLDPSYGYYADDYWGQGTQVTVSS”, the “polyreactivity (PSR sort gate)” value is recorded as “low polyreactivity”.

Consider “QVQLVESGGGLVQAGGSLRLSCAASGIIFIIYTMGWYRQSPGKERELVAAISWSGGSTYYADSVKGRFTISRDNAKNTVYLQMNSLKPEDTAVYYCAADVANWYGGGNSDYDHEYWGQGPQVTVSS”, for which the “polyreactivity (PSR sort gate)” value is “low polyreactivity”.

Take “QVQLVESGGGLVQAGGSLRLSCAASGIIFISYDMGWSRQAPGKERELVARINWDGGSTYYADSVKGRFTISRDNAKNTVYLQMNSLKPEDTAVYYCAAGFVGTNYPVLGFSYEYWGQGTQVTVSS”: the “polyreactivity (PSR sort gate)” value is recorded as “low polyreactivity”.

Turning to “QVQLVESGGGLVQAGGSLRLSCAASGIIFITYAMGWYRQAPGKERELVAAITNSGGGTYYADSVKGRFTISRDNAKNTVYLQMNILKPEATAVYYCAARKTAYGYRYDYWGQGTQVTVSS”, the “polyreactivity (PSR sort gate)” value is “high polyreactivity”.

For “QVQLVESGGGLVQAGGSLRLSCAASGIIFIYNAMGWYRQAPGKERELVGAIRRSGSPSYADSVKGRFTISRDNAKNTVYLQMNSLKPEDTAVYYCAADTSTWFGAYYLRDPYDYWGQGTQVTVSS”, the “polyreactivity (PSR sort gate)” value is reported as “low polyreactivity”.

Consider “QVQLVESGGGLVQAGGSLRLSCAASGIIFIYYAMGWYRQAPGKERELVAAISQSGVNTYYADSVKGRFTISRDNAKNTVYLQMNSLKPEDTAVYYCAADRYGHFGYWGQGTQVTVSS”, for which the “polyreactivity (PSR sort gate)” value was “high polyreactivity”.

Turning to “QVQLVESGGGLVQAGGSLRLSCAASGIIFKGYAMGWYRQAPGKERELVAGITRNGGGTYYADSVKGRFTISRDNAKNTVYLQMNSLKPEDTAVYYCAARWDYSYRYRLYYWGQGTQVTVSS”, the “polyreactivity (PSR sort gate)” value is “high polyreactivity”.

As to “QVQLVESGGGLVQAGGSLRLSCAASGIIFKIYAMGWYRQAPGKERELVAAITRSGTRTYYADSVKGRFTISRDNAKNTVYLQMNSLKPEDTAVYYCNAYTTLAYDLDYWGQGTQVTVSS”, the “polyreactivity (PSR sort gate)” value was “high polyreactivity”.

On to “QVQLVESGGGLVQAGGSLRLSCAASGIIFKPYAMGWYRPAPGKERQLVAAITVNGGTTYYADSVKGRFTISRDNAKKTVNVQMNSLKPEDPAFYYCNRGRPGGPSWYHYDYWGQGTEVTVSS”, for which the “polyreactivity (PSR sort gate)” value is on record as “high polyreactivity”.

As for “QVQLVESGGGLVQAGGSLRLSCAASGIIFKSYAKGWYRQAPGKARELVAAMSWIGGSTYYADSVKGRFTISRDNAKHTVYFQMTSLKPEATAVYYCNARQYRRSRMDYWGQGTQVTVSS”, the “polyreactivity (PSR sort gate)” value was “high polyreactivity”.

Regarding “QVQLVESGGGLVQAGGSLRLSCAASGIIFKSYAMGWYRQAPGKERELVAAISSGGSTYYVDSVKGRFTISRDNAKNTVYLQMNSLKPEDTAVYYCNARYKRYSYDYWGHGTQVTVSS”, the “polyreactivity (PSR sort gate)” value is “high polyreactivity”.

Turning to “QVQLVESGGGLVQAGGSLRLSCAASGIIFKSYAMGWYRQAPGKERELVAAITKRGGSTYYADSVKGRFTISRDNAKNTVYLQMNSLKPEDSAVYYCAAFAVPYDYWGQGTQVTVSS”, the “polyreactivity (PSR sort gate)” value is listed as “high polyreactivity”.

In the case of “QVQLVESGGGLVQAGGSLRLSCAASGIIFKVNAMGWYRQAPGKERELVAAISRRGGITYYADSVKGRFTISRDNAKNTVYLQMNSLKPEDSAVYYCAAAYSDYRFSTRYPYNYWGQGTQVTVSS”, the “polyreactivity (PSR sort gate)” value was “high polyreactivity”.

In the case of “QVQLVESGGGLVQAGGSLRLSCAASGIIFKYYAMGWYRQAPGKERELVAAISRSSGSTYYADSVKGRFTISRDNAKNTVYLQMNSLKPEDTAVYYCAASGWPQKYDYWGQGTQVTVSS”, the “polyreactivity (PSR sort gate)” value was “high polyreactivity”.

Take “QVQLVESGGGLVQAGGSLRLSCAASGIIFKYYAMGWYRQAPGKERELVAAISSRSGRTYYADSVKGRFTISRDNAKNTVYLQMNSLKPEDTAVYYCNVQVQRSYPYGYWGQGTQVTVSS”: the “polyreactivity (PSR sort gate)” value is recorded as “high polyreactivity”.

In the case of “QVQLVESGGGLVQAGGSLRLSCAASGIIFLDYVMGWYRQAPGKERELVAAINSGGSTYYADSVKGRFTISRDNAKNTVYLQMNSLKPEDTAVYYCAADDYYKFDYWGQGTQVSVSS”, the “polyreactivity (PSR sort gate)” value was “low polyreactivity”.

For the sequence “QVQLVESGGGLVQAGGSLRLSCAASGIIFLDYVMGWYRQAPGKERELVAAISRSGGTTYYADSVKGRFTISRDNAKNTVYLQMNSLKPEDTAVYYCAVRSYRDTRFYYWGQGTKVTVSS”, the “polyreactivity (PSR sort gate)” value was “high polyreactivity”.

For the sequence “QVQLVESGGGLVQAGGSLRLSCAASGIIFLENAMGWFRQAPGKESELVAGINGGGRTDYADSVKGRFTISRDNAKHTVYLQMNSLKPEDTAVYYCAAESSWYSPDVNYCGQGTQVTVSS”, the “polyreactivity (PSR sort gate)” value is “low polyreactivity”.

In the case of “QVQLVESGGGLVQAGGSLRLSCAASGIIFLFYAMGWYRQAPGKERELVASITWSGGSTYYADSVKGRFTISRDNAKNTVYLQMNSLKPEDTAVYYCAASVKIISYLVHSEFLGGELDYWGQGTQVTVSS”, the “polyreactivity (PSR sort gate)” value is listed as “low polyreactivity”.

Take “QVQLVESGGGLVQAGGSLRLSCAASGIIFLGNAMGWYRQAPGKERELVAAITASGTSTYYADSVKGRFTISRDNAKNTVYLQMNSLKPEDTAVYYCAAQSTWYDYYYWGQGTQVTVSS”: the “polyreactivity (PSR sort gate)” value is listed as “low polyreactivity”.

On to “QVQLVESGGGLVQAGGSLRLSCAASGIIFLGYVMGWYRQAPGKERELVAAISSSGGRTYYADSVKGRFTISRDNAKNTVYLQMNSLKPEDTAVYYCARYSYRGTNVRYDYWGQGTQVTVSS”, for which the “polyreactivity (PSR sort gate)” value is recorded as “high polyreactivity”.

In the case of “QVQLVESGGGLVQAGGSLRLSCAASGIIFLLYAMGWYRQAPGKERELVAAITNGGRTNYADSVKGRFTISRDNAKNTVYLQMNSLKPEDTAVYYCNAVLSVPDYTLFDYWGQGTQVTVSS”, the “polyreactivity (PSR sort gate)” value is given as “low polyreactivity”.

For “QVQLVESGGGLVQAGGSLRLSCAASGIIFLNYDIGWYRPAPGKERELVAAITTSGASTYYADSVKGRFTISRDNAKNTVYLQMNSLKREDTAVYYCAAVFRHARYRYDYWGQGTQVTVSS”, the “polyreactivity (PSR sort gate)” value is listed as “high polyreactivity”.

On to “QVQLVESGGGLVQAGGSLRLSCAASGIIFLSYAMGWYRQAPGKERELVATITRSGGSTYYADSVEGRFTISRDNAKNTVYLQMNSLKPEDTAVYYCARYWRTSGVRMDYWGQGTQVTVSS”, for which the “polyreactivity (PSR sort gate)” value is on record as “high polyreactivity”.

As for “QVQLVESGGGLVQAGGSLRLSCAASGIIFNDYAMGWYRQAPGKERELVAAISWSGGRTYYADSVKGRFTISRDNAKNTVYLQMNSLKPEDTAVYYCNARARQYSAFPVVERNYWGQGTQVTVSS”, the “polyreactivity (PSR sort gate)” value is recorded as “high polyreactivity”.

On to “QVQLVESGGGLVQAGGSLRLSCAASGIIFNRYAMGWYRQAPGKERELVAAISASGDSTYYADSVKGRFTISRDNAKYTVYLQMNSLKPEDTAVDYCAADYGYRYDYWGHGTQVTVSS”, for which the “polyreactivity (PSR sort gate)” value was “low polyreactivity”.

Turning to “QVQLVESGGGLVQAGGSLRLSCAASGIIFNTYAMGWYRQAPGKERELVAAIDSRDASTYADSVKGRYTISRDNAKNTVYLQMNSLIPEDTAVYYCAATHNVDLISEVYYWGQGTQVTVSS”, the “polyreactivity (PSR sort gate)” value is reported as “low polyreactivity”.
